Experimental data published in the supplement of paper PMC9170038.

System: MS2 coat protein
Test: apparent KD of MS2 coat protein; designed switch direction (-1 OFF switch, 1 ON switch): -1; higher = weaker reporter binding
Summary of the method: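 Three titration conditions were used: no input, 200 uM small-molecule ligand, and an oligonucleotide input. In each, SNAP-549-labelled MS2 coat protein was raised from 0.7 or 1.5 nM, doubling, to 3 µM over designed RNA switches transcribed on Illumina chips by stalled E. coli RNA polymerase. Curve fits of normalised cluster fluorescence gave values whose per-design median over clusters is the apparent KD.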

[1] = Eterna round: R95, input ligand: microRNA oligo, concentration not stated
[2] = input ligand: microRNA oligo, concentration not stated

Row | Sequence | apparent KD of MS2 coat protein (input ligand: FMN 200 uM) | apparent KD of MS2 coat protein (input ligand: none) | apparent KD of MS2 coat protein [1] | apparent KD of MS2 coat protein [2] | apparent KD of MS2 coat protein (Eterna round: R95, input ligand: FMN 200 uM) | apparent KD of MS2 coat protein (Eterna round: R95, input ligand: none)
1 | GGAGGAAGAGAGGAUAUGCGCGCAAGGAGCUUAGCAGAAGGUUCAACAUGAGGAUCACCCAUGUAUGAUCCUCA [AK-MS2ROC-r4-exclusion6-5] (Eterna round: R97, puzzle: Exclusion 6) | 341 nM | 318 nM |  |  |  | 
2 | UAUUAGCAAGCAAGAUCCCACAUGAGGAUCACCCAUGUGCUCGUCUUAUAAGGUACUGUGACGAAAGUCACGGUACC [Sensor 3, v1 - 95 v2] (Eterna round: R97, puzzle: Sensor, turn-off variant 1) | 52.5 nM | 45.4 nM |  |  |  | 
3 | UCGGCGCGAGGAUAUACGGUUGCUUUUUAGGGUCGUGGCGUACAUGAGGAUCACCCAUGUAGAAGGCGCGCCGC [Apr-15 SS2-30] (puzzle: Exclusion 2) |  |  | 13.8 nM |  |  | 
4 | ACACAGCAAGGAUAUACAUGAGGAUCACCCAUGUGGCGGCCGUUACGGUAGGACUAGUGUAGAAGGUGCAUUGG [EX3 #33] (Eterna round: R97, puzzle: Exclusion 3) | 167 nM | 210 nM |  |  |  | 
5 | UUUUUAGAUGAAGGAUAUACUUAACAUGAGGAUCACCCAUGUGGUGUUGUGAGUGAGUGAGUUUAGUAGAAGGUCAAUUCUUUU [JMF's solution 87] (Eterna round: R96, puzzle: Exclusion NG 2) | 566 nM | 346 nM |  | 311 nM |  | 
6 | ACGACCUGAGGAUAUACAUGAGGAUCACCCAUGUAUGCAACAGCCGGGAAAUCCCGAUGUAGAAGGCAGGAAAA [Eternabot (Original) Solution 26] (Eterna round: R97, puzzle: Exclusion 3) | 252 nM | 32.2 nM |  |  |  | 
7 | CUUCACCCACCAGAGCUCACCCACAUACCUACUCAGGUGACAUGAGGAUCACCCAUGUUUUUUGCCCGUCUUAUCUU [Vexebedi] (Eterna round: R96, puzzle: Sensor v3, turn-off variant 2) | 34.4 nM | 37.5 nM |  | 174 nM |  | 
8 | UGUGUUUUUGUGAGGAUAUACUGUUUGUUUUGUUUGUAGAAGGUACAUGAGGAUCACCCAUGUUGUGUUUGGUU [JR_BME4_Sub032] (puzzle: Brourd's mod of Exclusion 4) |  |  | 30.9 nM |  |  | 
9 | CUCCGGCGUGUAGGAUAUGGUUCCGAUUAGGAUCCAGAAGGACAUGAGGAUCACCCAUGUACAUGUCGUCGGUCGUCACCGGGC [salish99_ExNG1_r04_211] (Eterna round: R96, puzzle: Exclusion NG 1) | 107 nM | 29.4 nM |  | 24.1 nM |  | 
10 | UAAAGCGUAGGAUAUACAUUCAUGAGCACCACCCGGUGCACACAUGAGGAUCACCCAUGUAGAAGGAUGCUACG [Eternabot (Original) Solution 49] (Eterna round: R97, puzzle: Exclusion 2) | 14.6 nM | 17.6 nM |  |  |  | 
11 | UUAAAGUCAGGAUAUACAUGAGGAUCACCCAUGUAAAAUUUUAAUUUAAUUUGAAGGUGUAGAAGGGACAAAUU [Ex3 #36] (Eterna round: R97, puzzle: Exclusion 3) | 25.6 nM | 26 nM |  |  |  | 
12 | GUCACUAGAGGAUAUACAAUGGUAUAUGAUCCUAGUGACAAACAUGAGGAUCACCCAUGUAGAAGGCUAGUAAA [Exclusion 2 - 2] (puzzle: Exclusion 2) |  |  | 28.3 nM |  | 24.5 nM | 28 nM
13 | GCCCGUGGGCAAGGAUAUCCUACGCUGUUCUGGUUCGUGUCUGUCACAUGAGGAUCACCCAUGUGGGAGAAGGUGCAUUAGGGU [Design 54] (Eterna round: R96, puzzle: Exclusion NG 2) | 16.7 nM | 16.8 nM |  | 12.3 nM |  | 
14 | ACGGUGGUCCGAGAACAUGAGGAUCACCCAUGUGACAAAACCAAGGAUAUAGAAGGACCGCCCGACUAGAAGGUGGAAAGAAAA [Aresonen] (Eterna round: R96, puzzle: Exclusion NG 3) | 101 nM | 117 nM |  | 73.3 nM |  | 
